Where a chain is given by its changes, count along the chain named.
Experiments:
Experiment in all cases: pull-down
[1] = biological target: T1, RP2 R118H disease-linked mutant, purified recombinant (human, UniProt O75695 1-350, R118H)
T1 sequence (looked up): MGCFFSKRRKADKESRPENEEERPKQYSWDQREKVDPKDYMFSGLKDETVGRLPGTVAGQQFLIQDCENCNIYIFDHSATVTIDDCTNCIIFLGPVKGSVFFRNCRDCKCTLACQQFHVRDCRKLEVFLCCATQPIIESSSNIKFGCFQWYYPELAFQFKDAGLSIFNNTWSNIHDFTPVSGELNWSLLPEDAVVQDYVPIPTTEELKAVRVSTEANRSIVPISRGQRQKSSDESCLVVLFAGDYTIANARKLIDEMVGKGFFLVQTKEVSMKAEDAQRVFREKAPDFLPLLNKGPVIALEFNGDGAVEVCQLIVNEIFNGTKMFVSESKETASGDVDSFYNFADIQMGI

[2] = biological target: T2, purified recombinant wild-type human RP2 (human, UniProt O75695 1-350)
T2 sequence (looked up): T1 sequence (looked up) with H118R

[3] = biological target: T3, RP2 L188P disease-causing mutant, purified recombinant (human, UniProt O75695 1-350, L188P)
T3 sequence (looked up): T1 sequence (looked up) with H118R, L188P

[4] = biological target: T4, RP2 R282W disease-linked mutant, purified recombinant (human, UniProt O75695 1-350, R282W)
T4 sequence (looked up): T1 sequence (looked up) with H118R, R282W

Measured: binding result

B1: GST fusion protein containing the N-terminal domain of NSF (domain or fragment, Chinese hamster, UniProt P18708 1-205, looked up)
chain: MAGRSMQAARCPTDELSLSNCAVVSEKDYQSGQHVIVRTSPNHKYIFTLRTHPSVVPGSVAFSLPQRKWAGLSIGQEIEVALYSFDKAKQCIGTMTIEIDFLQKKNIDSNPYDTDKMAAEFIQQFNNQAFSVGQQLVFSFNDKLFGLLVKDIEAMDPSILKGEPASGKRQKIEVGLVVGNSQVAFEKAENSSLNLIGKAKTKENR
binds: all assays above

Reference: PMC2942077 (Biochemistry, 2010)
